Results as given in article PMC13694701 (2026).

Legend:
[1] = target: TRIM62 (Homo sapiens, UniProt Q9BVG3); assay: MST
[2] = target: TRIM62 PRY-SPRY (Homo sapiens, UniProt Q9BVG3); assay: MST
TRIM62 PRY-SPRY, sequence (Q9BVG3 277-475): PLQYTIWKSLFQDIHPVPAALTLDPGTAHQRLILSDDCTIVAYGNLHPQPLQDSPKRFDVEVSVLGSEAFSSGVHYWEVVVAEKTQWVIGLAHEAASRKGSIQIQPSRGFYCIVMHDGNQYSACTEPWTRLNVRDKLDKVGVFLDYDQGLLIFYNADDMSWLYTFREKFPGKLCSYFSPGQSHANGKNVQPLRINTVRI

TRIM62, sequence (Q9BVG3 whole entry): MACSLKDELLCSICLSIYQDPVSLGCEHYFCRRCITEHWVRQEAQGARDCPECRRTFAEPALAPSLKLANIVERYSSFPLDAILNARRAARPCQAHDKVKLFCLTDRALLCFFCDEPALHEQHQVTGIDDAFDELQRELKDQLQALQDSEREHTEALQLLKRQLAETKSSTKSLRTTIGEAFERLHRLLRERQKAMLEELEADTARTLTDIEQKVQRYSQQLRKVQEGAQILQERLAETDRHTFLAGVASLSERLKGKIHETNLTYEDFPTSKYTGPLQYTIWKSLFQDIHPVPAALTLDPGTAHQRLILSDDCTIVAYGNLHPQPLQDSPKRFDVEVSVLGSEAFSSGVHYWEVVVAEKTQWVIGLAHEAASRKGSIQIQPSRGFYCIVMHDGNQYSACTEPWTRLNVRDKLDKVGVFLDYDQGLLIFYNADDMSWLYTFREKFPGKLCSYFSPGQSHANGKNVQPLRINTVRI

B1: FAM21 1-356 (protein)
chain: MMNRTTPDQELVPASEPVWERPWSVEEIRRSSQSWSLAADAGLLQFLQEFSQQTISRTHEIKKQVDGLIRETKATDCRLHNVFNDFLMLSNTQFIENRVYDEEVEEPVLKAEAEKTEQEKTREQKEVDLIPKVQEAVNYGLQVLDSAFEQLDIKAGNSDSEEDDANGRVELILEPKDLYIDRPLPYLIGSKLFMEQEDVGLGELSSEEGSVGSDRGSIVDTEEEKEEEESDEDFAHHSDNEQNQHTTQMSDEEEDDDGCDLFADSEKEEEDIEDIEENTRPKRSRPTSFADELAARIKGDAMGRVDEEPTTLPSGEAKPRKTLKEKKERRTPSDDEEDNLFAPPKLTDEDFSPFGS
Kd [1]: 0.4 µM | Kd [2]: 44.9 µM
